Km data for two molecules are collected here from publication PMC7530659, “Oxepinamide F biosynthesis involves enzymatic D-aminoacyl epimerization, 3H-oxepin formation, and hydroxylation induced double bond migration” (Nature Communications, 2020).

As usually defined, the Km is the concentration of substrate that gives half-maximal velocity.

The subject of data set [1] is T1, CC[C@H](C)[C@@H]1NC(=O)[C@@H](Cc2ccccc2)n2c1nc1c(c2=O)C=CC=CO1.
T1 construct: recombinant N-terminally His6-tagged OpaC from cDNA, 457 amino acids, lacking residues 248 to 252 of KIA75456
Description: purified protein. To be noted: FAD; NADPH. The class given is biochemical, Aspergillus ustus.

Substrate in data set [2]: CC[C@H](C)C1=C2N=C3OC=CC=C[C@]3(O)C(=O)N2[C@H](Cc2ccccc2)C(=O)N1
Description: HPLC enzyme assay with purified OpaE, Michaelis-Menten kinetics (KM); D2O labeling by LC-MS. The class given is biochemical, Aspergillus ustus.

On to OpaC (Aspergillus ustus; DEL248-252), for which the Km in data set [1] is 0.43 ± 0.04 mM.

B1: OpaE (Aspergillus ustus) (protein)
chain: MGPLRVFTDNKVKVMLLNPIGGAGFNDFVVETVLNHKDPSTHVTITSLANRIGGNQTLAYPSIRPLLYGEMIRVCLQARKENYDVLIINCFGDPMVDELQQIAGDDMVILGARQVAVQTASKISSKYAVLLPYDMKSSPDPLHQRVVADTRTAVAHPVVDMAFNDDLTPMDGESLGERLATQGKLAIKENGAEVLVLGCTAMVGCWQGLMRAVGVPVIDPTVAALRAAGKAGRLKRELVGGASTKRSGTFPTEKELKMIAESEPSYPFSGRIEI
notes: recombinant His6-tagged OpaE
With B1, the Km in data set [2] is recorded as 1.41 ± 0.05 mM.
